Measured values reported in IntAct's records for PubMed 19208808.

B1: ATP-dependent RNA helicase DDX19B (Homo sapiens), Q9UMR2-1 (parent)
chain: MATDSWALAVDEQEAAAESLSNLHLKEEKIKPDTNGAVVKTNANAEKTDEEEKEDRAAQSLLNKLIRSNLVDNTNQVEVLQRDPNSPLYSVKSFEELRLKPQLLQGVYAMGFNRPSKIQENALPLMLAEPPQNLIAQSQSGTGKTAAFVLAMLSQVEPANKYPQCLCLSPTYELALQTGKVIEQMGKFYPELKLAYAVRGNKLERGQKISEQIVIGTPGTVLDWCSKLKFIDPKKIKVFVLDEADVMIATQGHQDQSIRIQRMLPRNCQMLLFSATFEDSVWKFAQKVVPDPNVIKLKREEETLDTIKQYYVLCSSRDEKFQALCNLYGAITIAQAMIFCHTRKTASWLAAELSKEGHQVALLSGEMMVEQRAAVIERFREGKEKVLVTTNVCARGIDVEQVSVVINFDLPVDKDGNPDNETYLHRIGRTGRFGKRGLAVNMVDSKHSMNILNRIQEHFNKKIERLDTDDLDEIEKIAN

Variants of: B1
Details: with NUP214, P35658-1
Chain of NUP214, P35658-1 (P35658 whole entry): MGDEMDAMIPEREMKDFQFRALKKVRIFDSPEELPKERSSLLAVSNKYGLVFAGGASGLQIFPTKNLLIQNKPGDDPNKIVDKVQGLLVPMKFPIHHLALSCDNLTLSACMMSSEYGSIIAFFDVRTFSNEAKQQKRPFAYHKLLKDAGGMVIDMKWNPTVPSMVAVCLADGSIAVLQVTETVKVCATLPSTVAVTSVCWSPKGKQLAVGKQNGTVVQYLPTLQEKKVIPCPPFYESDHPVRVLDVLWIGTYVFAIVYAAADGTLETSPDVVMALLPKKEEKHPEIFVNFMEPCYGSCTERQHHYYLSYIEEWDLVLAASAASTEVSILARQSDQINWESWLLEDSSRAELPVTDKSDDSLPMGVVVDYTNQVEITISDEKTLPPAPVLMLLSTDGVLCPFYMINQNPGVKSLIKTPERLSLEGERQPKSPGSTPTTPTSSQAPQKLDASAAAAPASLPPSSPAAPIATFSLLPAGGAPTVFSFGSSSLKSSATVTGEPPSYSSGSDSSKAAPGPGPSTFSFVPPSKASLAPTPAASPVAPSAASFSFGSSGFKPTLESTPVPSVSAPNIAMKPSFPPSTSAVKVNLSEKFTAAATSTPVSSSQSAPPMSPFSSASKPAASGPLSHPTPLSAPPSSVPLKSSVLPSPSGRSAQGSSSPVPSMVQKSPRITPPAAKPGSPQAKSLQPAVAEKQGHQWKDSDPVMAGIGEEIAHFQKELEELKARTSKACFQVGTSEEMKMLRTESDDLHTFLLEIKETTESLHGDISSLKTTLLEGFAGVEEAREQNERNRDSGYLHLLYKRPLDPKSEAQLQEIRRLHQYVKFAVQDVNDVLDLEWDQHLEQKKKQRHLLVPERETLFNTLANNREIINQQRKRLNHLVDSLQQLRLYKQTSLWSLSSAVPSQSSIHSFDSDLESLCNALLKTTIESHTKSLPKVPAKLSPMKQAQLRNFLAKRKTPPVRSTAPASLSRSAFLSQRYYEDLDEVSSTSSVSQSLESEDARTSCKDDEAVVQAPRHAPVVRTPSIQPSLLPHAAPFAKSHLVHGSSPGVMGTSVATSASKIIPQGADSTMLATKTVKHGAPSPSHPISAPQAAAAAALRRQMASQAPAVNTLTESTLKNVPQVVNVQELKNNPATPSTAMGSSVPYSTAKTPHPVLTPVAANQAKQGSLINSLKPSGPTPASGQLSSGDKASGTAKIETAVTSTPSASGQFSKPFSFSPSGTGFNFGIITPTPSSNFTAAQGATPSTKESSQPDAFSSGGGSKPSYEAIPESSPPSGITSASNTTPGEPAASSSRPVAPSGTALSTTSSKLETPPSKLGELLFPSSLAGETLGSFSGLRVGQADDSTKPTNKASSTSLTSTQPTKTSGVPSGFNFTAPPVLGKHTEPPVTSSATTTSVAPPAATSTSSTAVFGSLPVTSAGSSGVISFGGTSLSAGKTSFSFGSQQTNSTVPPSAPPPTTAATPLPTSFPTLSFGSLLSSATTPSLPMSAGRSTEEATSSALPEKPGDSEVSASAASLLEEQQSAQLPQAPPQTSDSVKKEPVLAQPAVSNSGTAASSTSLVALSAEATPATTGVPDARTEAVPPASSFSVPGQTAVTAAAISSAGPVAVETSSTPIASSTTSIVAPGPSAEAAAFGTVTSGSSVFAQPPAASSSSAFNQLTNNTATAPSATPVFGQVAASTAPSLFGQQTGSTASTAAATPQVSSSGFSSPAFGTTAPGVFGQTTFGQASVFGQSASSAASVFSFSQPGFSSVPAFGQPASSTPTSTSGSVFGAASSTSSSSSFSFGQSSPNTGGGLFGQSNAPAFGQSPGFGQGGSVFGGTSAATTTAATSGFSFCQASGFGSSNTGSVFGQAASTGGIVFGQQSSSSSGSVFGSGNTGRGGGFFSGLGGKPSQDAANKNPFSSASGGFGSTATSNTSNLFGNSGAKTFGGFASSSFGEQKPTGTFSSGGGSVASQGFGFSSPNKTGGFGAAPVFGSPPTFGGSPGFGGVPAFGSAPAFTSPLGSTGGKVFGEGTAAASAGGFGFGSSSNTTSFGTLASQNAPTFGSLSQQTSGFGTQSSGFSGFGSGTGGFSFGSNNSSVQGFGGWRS

Row | effect of a mutation on the interaction | Variant
1 | disrupting interaction strength | MATDSWALAVDEQEAAAESLSNLHLKEEKIKPDTNGAVVKTNANAEKTDEEEKEDRAAQSLLNKLIRSNLVDNTNQVEVLQRDPNSPLYSVKSFEELRLKPQLLQGVYAMGFNRPSKIQENALPLMLAEPPQNLIAQSQSGTGKTAAFVLAMLSQVEPANKYPQCLCLSPTYELALQTGKVIEQMGKFYPELKLAYAVRGNKLERGQKISEQIVIGTPGTVLDWCSKLKFIDPKKIKVFVLDEADVMIATQGHQDQSIAIQRMLPRNCQMLLFSATFEDSVWKFAQKVVPDPNVIKLKREEETLDTIKQYYVLCSSRDEKFQALCNLYGAITIAQAMIFCHTRKTASWLAAELSKEGHQVALLSGEMMVEQRAAVIERFREGKEKVLVTTNVCARGIDVEQVSVVINFDLPVDKDGNPDNETYLHRIGRTGRFGKRGLAVNMVDSKHSMNILNRIQEHFNKKIERLDTDDLDEIEKIAN [R259A]
2 | disrupting interaction strength | MATDSWALAVDEQEAAAESLSNLHLKEEKIKPDTNGAVVKTNANAEKTDEEEKEDRAAQSLLNKLIRSNLVDNTNQVEVLQRDPNSPLYSVKSFEELRLKPQLLQGVYAMGFNRPSKIQENALPLMLAEPPQNLIAQSQSGTGKTAAFVLAMLSQVEPANKYPQCLCLSPTYELALQTGKVIEQMGKFYPELKLAYAVRGNKLERGQKISEQIVIGTPGTVLDWCSKLKFIDPKKIKVFVLDEADVMIATQGHQDQSIEIQRMLPRNCQMLLFSATFEDSVWKFAQKVVPDPNVIKLKREEETLDTIKQYYVLCSSRDEKFQALCNLYGAITIAQAMIFCHTRKTASWLAAELSKEGHQVALLSGEMMVEQRAAVIERFREGKEKVLVTTNVCARGIDVEQVSVVINFDLPVDKDGNPDNETYLHRIGRTGRFGKRGLAVNMVDSKHSMNILNRIQEHFNKKIERLDTDDLDEIEKIAN [R259E]
3 | decreasing interaction | MATDSWALAVDEQEAAAESLSNLHLKEEKIKPDTNGAVVKTNANAEKTDEEEKEDRAAQSLLNKLIRSNLVDNTNQVEVLQRDPNSPLYSVKSFEELRLKPQLLQGVYAMGFNRPSKIQENALPLMLAEPPQNLIAQSQSGTGKTAAFVLAMLSQVEPANKYPQCLCLSPTYELALQTGKVIEQMGKFYPELKLAYAVRGNKLERGQKISEQIVIGTPGTVLDWCSKLKFIDPKKIKVFVLDEADVMIATQGHQDQSIQIQRMLPRNCQMLLFSATFEDSVWKFAQKVVPDPNVIKLKREEETLDTIKQYYVLCSSRDEKFQALCNLYGAITIAQAMIFCHTRKTASWLAAELSKEGHQVALLSGEMMVEQRAAVIERFREGKEKVLVTTNVCARGIDVEQVSVVINFDLPVDKDGNPDNETYLHRIGRTGRFGKRGLAVNMVDSKHSMNILNRIQEHFNKKIERLDTDDLDEIEKIAN [R259Q]
